Reference: paper PMC6067968

What was measured:
Assay in all cases: cross-linking
[1] = molecular target: Recombinant full-length human apolipoprotein A-I L170P (human)
[2] = molecular target: Recombinant full-length human apolipoprotein A-I F71Y (human)
[3] = molecular target: Recombinant full-length human apolipoprotein A-I L159R (Finnish variant) (human)

For “Recombinant full-length human apolipoprotein A-I L170P (natural protein)”, the stoichiometry N [1] was 2.
For “Recombinant full-length human apolipoprotein A-I F71Y (natural protein)”, the stoichiometry N [2] was 2.
Substance “Recombinant full-length human apolipoprotein A-I L159R (Finnish variant) (natural protein)” has a stoichiometry N [3] of 2.
